Square brackets hold non-standard residues; d marks the D form. Ends that are not written are not given here. F2Pmab = 2-amino-4,4-difluoro-3-methyl-4-phosphobutanoic acid (p-Thr mimetic); pT = C[C@@H](OP(=O)(O)O)[C@H](N)C(=O)O
target: Plk1 PBD (purified recombinant) (human); experiment: ITC

Point of comparison: Ac-LHS[pT]AI [LHSpTAI, N-terminally acetylated], Kd 247 nM. Against it:
- Ac-PLHSpT (peptide) — 1.8-fold higher, 445 nM
- Ac-HS[pT]A [HSpTA, N-terminally acetylated] — 79-fold higher, 19500 nM
- Ac-LHS[pT] [LHSpT, N-terminally acetylated] — 89-fold higher, 22100 nM
- Ac-PLHS[pT]A [PLHSpTA, N-terminally acetylated] — within 1.5-fold, 262 nM

Point of comparison: Ac-LHS[pT] [LHSpT, N-terminally acetylated], dH -6.29 kcal/mol. Against it:
- LHSpTA, N-terminally acetylated (peptide) — lower, -9.9 kcal/mol
- MQSpTPL, N-terminally acetylated (peptide) — lower, -10 kcal/mol
- Ac-LHS[pT]AI [LHSpTAI, N-terminally acetylated] — lower, -11.3 kcal/mol
- Ac-HS[pT]A [HSpTA, N-terminally acetylated] — higher, -3.82 kcal/mol
- Ac-PLHS[pT]A [PLHSpTA, N-terminally acetylated] — lower, -11.6 kcal/mol

target: Plk2 PBD (purified recombinant); experiment: ITC
Sequence (Q9NYY3 whole entry): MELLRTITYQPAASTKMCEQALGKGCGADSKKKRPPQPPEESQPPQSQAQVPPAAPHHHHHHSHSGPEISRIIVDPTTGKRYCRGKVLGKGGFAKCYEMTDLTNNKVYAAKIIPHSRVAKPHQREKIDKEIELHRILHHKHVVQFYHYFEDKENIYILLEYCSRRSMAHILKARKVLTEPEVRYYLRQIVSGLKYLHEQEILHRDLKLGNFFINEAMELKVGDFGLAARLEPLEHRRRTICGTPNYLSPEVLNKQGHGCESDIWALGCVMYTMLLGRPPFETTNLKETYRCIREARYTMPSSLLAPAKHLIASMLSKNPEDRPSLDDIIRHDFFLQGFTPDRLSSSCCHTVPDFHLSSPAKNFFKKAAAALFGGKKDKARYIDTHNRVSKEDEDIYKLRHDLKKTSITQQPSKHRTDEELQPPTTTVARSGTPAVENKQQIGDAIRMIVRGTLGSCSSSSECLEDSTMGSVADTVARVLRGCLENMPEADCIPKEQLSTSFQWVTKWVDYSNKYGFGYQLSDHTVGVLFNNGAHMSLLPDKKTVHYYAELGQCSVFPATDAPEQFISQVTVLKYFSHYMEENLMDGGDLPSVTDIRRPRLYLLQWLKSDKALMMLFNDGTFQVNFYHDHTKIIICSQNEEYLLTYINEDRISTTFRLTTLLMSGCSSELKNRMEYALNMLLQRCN

Point of comparison: “MQSpTPL, N-terminally acetylated (peptide)”, calorimetric initial heat of interaction -1.68 kcal/mol. Against it:
- PLQSpT, N-terminally acetylated (peptide) — higher, -1.1 kcal/mol

target: Plk1 (Homo sapiens, UniProt P53350); experiment: Peptide pull-down of Plk1 from HeLa lysates with bead-immobilized peptides
Sequence (P53350 367-603 limits assumed): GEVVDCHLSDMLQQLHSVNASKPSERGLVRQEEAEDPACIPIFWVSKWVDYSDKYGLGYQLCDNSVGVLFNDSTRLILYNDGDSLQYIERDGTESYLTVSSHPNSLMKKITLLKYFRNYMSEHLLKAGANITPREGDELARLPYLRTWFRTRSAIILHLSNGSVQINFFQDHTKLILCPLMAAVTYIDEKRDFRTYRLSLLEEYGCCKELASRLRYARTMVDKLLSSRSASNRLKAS

In the case of PLHA-Pmab (PLHAT), the “Plk1 binding in peptide pull-down (in words)” value is reported as “abolished the Plk1 binding”.
With “PLHS-F2Pmab-A: 6-mer p-T78 mimetic peptide containing 2-amino-4,4-difluoro-3-methyl-4-phosphobutanoic acid (F2Pmab) (PLHS[F2Pmab]A-NH2)” the “Plk1 binding in peptide pull-down (in words)” value was “precipitated Plk1”.
